B1: Dexamethasone-induced Ras-related protein 1 (Mus musculus), O35626 (parent)
chain: MKLAAMIKKMCPSDSELSIPAKNCYRMVILGSSKVGKTAIVSRFLTGRFEDAYTPTIEDFHRKFYSIRGEVYQLDILDTSGNHPFPAMRRLSILTGDVFILVFSLDNRDSFEEVQRLKQQILDTKSCLKNKTKENVDVPLVICGNKGDRDFYREVEQREIEQLVGDDPQRCAYFEISAKKNSSLDQMFRALFAMAKLPSEMSPDLHRKVSVQYCDVLHKKALRNKKLLRAGSGGGGDHGDAFGILAPFARRPSVHSDLMYIREKTSVGSQAKDKERCVIS
partner: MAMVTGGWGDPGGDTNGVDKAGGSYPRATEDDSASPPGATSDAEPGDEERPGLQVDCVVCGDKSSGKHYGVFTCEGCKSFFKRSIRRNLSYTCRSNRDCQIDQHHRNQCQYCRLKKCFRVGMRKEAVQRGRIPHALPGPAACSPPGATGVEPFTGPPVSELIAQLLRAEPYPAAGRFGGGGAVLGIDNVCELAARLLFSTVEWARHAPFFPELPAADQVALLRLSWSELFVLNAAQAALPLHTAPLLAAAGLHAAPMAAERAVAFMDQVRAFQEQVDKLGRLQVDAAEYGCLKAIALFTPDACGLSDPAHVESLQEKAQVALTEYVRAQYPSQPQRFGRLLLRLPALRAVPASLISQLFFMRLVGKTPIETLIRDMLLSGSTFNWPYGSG

Variants of: B1
Conditions: with nr2f6_mouse Nr2f6, P43136
With MKLAAMIKKMCPSDSELSIPAKNCYRMVILGSSNVGKTAIVSRFLTGRFEDAYTPTIEDFHRKFYSIRGEVYQLDILDTSGNHPFPAMRRLSILTGDVFILVFSLDNRDSFEEVQRLKQQILDTKSCLKNKTKENVDVPLVICGNKGDRDFYREVEQREIEQLVGDDPQRCAYFEISAKKNSSLDQMFRALFAMAKLPSEMSPDLHRKVSVQYCDVLHKKALRNKKLLRAGSGGGGDHGDAFGILAPFARRPSVHSDLMYIREKTSVGSQAKDKERCVIS [K34N] the “effect of a mutation on the interaction” value was “decreasing interaction”.
In the case of MKLAAMIKKMCPSDSELSIPAKNCYRMVILGSSKVGKTAIVSRFLTGRFEDAYTPTIEDFHRKFYSIRGEVYQLDILDTSANHPFPAMRRLSILTGDVFILVFSLDNRDSFEEVQRLKQQILDTKSCLKNKTKENVDVPLVICGNKGDRDFYREVEQREIEQLVGDDPQRCAYFEISAKKNSSLDQMFRALFAMAKLPSEMSPDLHRKVSVQYCDVLHKKALRNKKLLRAGSGGGGDHGDAFGILAPFARRPSVHSDLMYIREKTSVGSQAKDKERCVIS [G81A], the “effect of a mutation on the interaction” value is reported as “decreasing interaction”.

Reference: IntAct's records for PubMed 21247419
